Source: patent US20130059806A1 (REGENTS OF THE UNIVERSITY OF MICHIGAN, published 2013)

T1: TR4 (mouse, UniProt P49117 1-596)
T1 construct: Endogenous protein, immunoprecipitated or detected with a rabbit polyclonal antibody; also called NR2C2
T1 sequence (looked up): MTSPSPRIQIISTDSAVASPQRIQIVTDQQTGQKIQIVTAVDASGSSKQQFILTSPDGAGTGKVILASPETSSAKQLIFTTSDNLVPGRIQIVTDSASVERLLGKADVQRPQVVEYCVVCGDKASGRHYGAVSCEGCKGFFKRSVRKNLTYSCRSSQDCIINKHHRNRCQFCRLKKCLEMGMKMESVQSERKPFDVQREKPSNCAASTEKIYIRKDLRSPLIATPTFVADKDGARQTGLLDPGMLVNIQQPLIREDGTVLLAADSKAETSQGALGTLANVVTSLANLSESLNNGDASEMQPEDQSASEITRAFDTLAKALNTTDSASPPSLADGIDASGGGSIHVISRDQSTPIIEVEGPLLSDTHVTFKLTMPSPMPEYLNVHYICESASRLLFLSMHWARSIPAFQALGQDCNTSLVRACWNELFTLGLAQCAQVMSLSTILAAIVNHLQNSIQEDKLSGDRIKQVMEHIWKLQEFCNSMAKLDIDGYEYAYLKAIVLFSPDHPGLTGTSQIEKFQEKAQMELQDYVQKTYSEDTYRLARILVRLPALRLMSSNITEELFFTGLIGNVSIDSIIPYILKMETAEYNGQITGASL

B1: MTA2 (other, mouse, UniProt Q9R190 1-668, looked up)
chain: MAANMYRVGDYVYFENSSSNPYLVRRIEELNKTANGNVEAKVVCLFRRRDISSSLNSLADSNAREFEEESKQPGVSEQQRHQLKHRELFLSRQFESLPATHIRGKCSVTLLNETDILNQYLDKEDCFFYSLVFDPVQKTLLADQGEIRVGCKFQAEIPDRLAEGESDNRNQQKMEMKVWDPDNPLTDRQIDQFLVVARAVGTFARALDCSSSIRQPSLHMSAAAASRDITLFHAMDTLQRNGYDLAKAMSTLVPQGGPVLCRDEMEEWSASEAMLFEEALEKYGKDFNDIRQDFLPWKSLASIVQFYYMWKTTDRYIQQKRLKAAEADSKLKQVYIPTYTKPNPNQIISVGSKPGMNGAGFQKGLTCESCHTTQSAQWYAWGPPNMQCRLCASCWIYWKKYGGLKTPTQLEGAARGTTEPHSRGHLSRPEAQSLSPYTTSANRAKLLAKNRQTFLLQTTKLTRLARRMCRDLLQPRRAARRPYAPINANAIKAECSIRLPKAAKTPLKIHPLVRLPLATIVKDLVAQAPLKPKTPRGTKTPINRNQLTQNRGLGGIMVKRSYETMAGAGVPFSANGRPLASGIRSSSQPAAKRQKLNPADAPNPVVFVATKDTRALRKALTHLEMRRAARRPNLPLKVKPTLMTVRPPVPLPASSHPASTNEPIVLED
notes: also called MTA1/2 (with MTA1)
B2: transcriptional intermediary factor (TIF)-1beta (other, mouse, UniProt Q62318 2-834, looked up)
chain: AASAAATAAASAATAASAASGSPGSGEGSAGGEKRPAASSAAAASAAASSPAGGGGEAQELLEHCGVCRERLRPERDPRLLPCLHSACSACLGPATPAAANNSGDGGSAGDGAMVDCPVCKQQCYSKDIVENYFMRDSGSKASSDSQDANQCCTSCEDNAPATSYCVECSEPLCETCVEAHQRVKYTKDHTVRSTGPAKTRDGERTVYCNVHKHEPLVLFCESCDTLTCRDCQLNAHKDHQYQFLEDAVRNQRKLLASLVKRLGDKHATLQKNTKEVRSSIRQVSDVQKRVQVDVKMAILQIMKELNKRGRVLVNDAQKVTEGQQERLERQHWTMTKIQKHQEHILRFASWALESDNNTALLLSKKLIYFQLHRALKMIVDPVEPHGEMKFQWDLNAWTKSAEAFGKIVAERPGTNSTGPGPMAPPRAPGPLSKQGSGSSQPMEVQEGYGFGSDDPYSSAEPHVSGMKRSRSGEGEVSGLLRKVPRVSLERLDLDLTSDSQPPVFKVFPGSTTEDYNLIVIERGAAAAAAGQAGTVPPGAPGAPPLPGMAIVKEEETEAAIGAPPAAPEGPETKPVLMPLTEGPGAEGPRLASPSGSTSSGLEVVAPEVTSAPVSGPGILDDSATICRVCQKPGDLVMCNQCEFCFHLDCHLPALQDVPGEEWSCSLCHVLPDLKEEDGSLSLDGADSTGVVAKLSPANQRKCERVLLALFCHEPCRPLHQLATDSTFSMEQPGGTLDLTLIRARLQEKLSPPYSSPQEFAQDVGRMFKQFNKLTEDKADVQSIIGLQRFFETRMNDAFGDTKFSAVLVEPPPLNLPSAGLSSQELSGPGDGP
notes: also called TIF1β; TIF113
B3: MTA1 (other, mouse, UniProt Q8K4B0 1-715, looked up)
chain: MAANMYRVGDYVYFENSSSNPYLIRRIEELNKTANGNVEAKVVCFYRRRDISSSLIALADKHATLSVCYRAGPGADTGEEGEVEEEVENPEMVDLPEKLKHQLRHRELFLSRQLESLPATHIRGKCSVTLLNETESLKSYLEREDFFFYSLVYDPQQKTLLADKGEIRVGNRYQADITDLLKEGEEDGRDQSKLETKVWEAHNPLVDKQIDQFLVVARSVGTFARALDCSSSVRQPSLHMSAAAASRDITLFHAMDTLHKNIYDISKAISALVPQGGPVLCRDEMEEWSASEANLFEEALEKYGKDFTDIQQDFLPWKSLTSIIEYYYMWKTTDRYVQQKRLKAAEAESKLKQVYIPNYNKPNPNQISASSVKATVVNGTGTPGQSPGAGRACESCYTTQSYQWYSWGPPNMQCRLCASCWTYWKKYGGLKMPTRLDGERPGPNRNNMSPHGIPARSSGSPKFAMKTRQAFYLHTTKLTRIARRLCREILRPWHAARHPYMPINSAAIKAECTARLPEASQSPLVLKQVVRKPLEAVLRYLETHPRPPKPDPVKSSSSVLSSLTPAKSAPVINNGSPTILGKRSYEQHNGVDGNMKKRLLMPSRGLANHGQTRHMGPSRNLLLNGKSYPTKVRLIRGGSLPPVKRRRMNWIDAPDDVFYMATEETRKIRKLLSSSETKRAARRPYKPIALRQSQALPLRPPPPAPVNDEPIVIED
notes: also called MTA1/2 (with MTA2)

Legend:
TR4 = target: T1, TR4; experiment: co-IP from untransfected MEL nuclear extract, immunoblot (summary)
Experimental: Nuclear extracts were prepared from untransfected, induced MEL cells and incubated with protein G beads coupled with antibodies against proteins shown at the top of the images, or with a control IgG; 150 μg of nuclear extract protein was used for each lane. Immunoprecipitates with the antibody-coupled beads, and 10% of the input (15 μg protein) were subjected to SDS-PAGE followed by immunoblotting with antibodies against proteins shown to the left of the images. For immunoprecipitation, antibodies against TR2, TR4, DNMT1, HDAC3, and TIF113 were used in the left panels.
Antibodies were coupled to Dynabeads protein G (Invitrogen) by incubating for 2 hr at 4° C. with rotation according to the manufacturer's instructions. The beads were then incubated with nuclear extracts (150 μg protein) prepared from untransfected MEL cells for 2 hr at 4° C. After washing the beads with ice-cold phosphate buffered saline (PBS) three times, immunoprecipitated proteins were eluted by boiling in 1× Laemmli sample buffer and then subjected to immunoblotting.

[1] = target: B2; experiment: co-IP from untransfected MEL nuclear extract, immunoblot
Mi2β = target: T2, Mi2β (mouse, UniProt Q6PDQ2 1-1915); experiment: as above
T2 construct: also called Mi2beta; Mi213
T2 sequence (Q6PDQ2 whole entry): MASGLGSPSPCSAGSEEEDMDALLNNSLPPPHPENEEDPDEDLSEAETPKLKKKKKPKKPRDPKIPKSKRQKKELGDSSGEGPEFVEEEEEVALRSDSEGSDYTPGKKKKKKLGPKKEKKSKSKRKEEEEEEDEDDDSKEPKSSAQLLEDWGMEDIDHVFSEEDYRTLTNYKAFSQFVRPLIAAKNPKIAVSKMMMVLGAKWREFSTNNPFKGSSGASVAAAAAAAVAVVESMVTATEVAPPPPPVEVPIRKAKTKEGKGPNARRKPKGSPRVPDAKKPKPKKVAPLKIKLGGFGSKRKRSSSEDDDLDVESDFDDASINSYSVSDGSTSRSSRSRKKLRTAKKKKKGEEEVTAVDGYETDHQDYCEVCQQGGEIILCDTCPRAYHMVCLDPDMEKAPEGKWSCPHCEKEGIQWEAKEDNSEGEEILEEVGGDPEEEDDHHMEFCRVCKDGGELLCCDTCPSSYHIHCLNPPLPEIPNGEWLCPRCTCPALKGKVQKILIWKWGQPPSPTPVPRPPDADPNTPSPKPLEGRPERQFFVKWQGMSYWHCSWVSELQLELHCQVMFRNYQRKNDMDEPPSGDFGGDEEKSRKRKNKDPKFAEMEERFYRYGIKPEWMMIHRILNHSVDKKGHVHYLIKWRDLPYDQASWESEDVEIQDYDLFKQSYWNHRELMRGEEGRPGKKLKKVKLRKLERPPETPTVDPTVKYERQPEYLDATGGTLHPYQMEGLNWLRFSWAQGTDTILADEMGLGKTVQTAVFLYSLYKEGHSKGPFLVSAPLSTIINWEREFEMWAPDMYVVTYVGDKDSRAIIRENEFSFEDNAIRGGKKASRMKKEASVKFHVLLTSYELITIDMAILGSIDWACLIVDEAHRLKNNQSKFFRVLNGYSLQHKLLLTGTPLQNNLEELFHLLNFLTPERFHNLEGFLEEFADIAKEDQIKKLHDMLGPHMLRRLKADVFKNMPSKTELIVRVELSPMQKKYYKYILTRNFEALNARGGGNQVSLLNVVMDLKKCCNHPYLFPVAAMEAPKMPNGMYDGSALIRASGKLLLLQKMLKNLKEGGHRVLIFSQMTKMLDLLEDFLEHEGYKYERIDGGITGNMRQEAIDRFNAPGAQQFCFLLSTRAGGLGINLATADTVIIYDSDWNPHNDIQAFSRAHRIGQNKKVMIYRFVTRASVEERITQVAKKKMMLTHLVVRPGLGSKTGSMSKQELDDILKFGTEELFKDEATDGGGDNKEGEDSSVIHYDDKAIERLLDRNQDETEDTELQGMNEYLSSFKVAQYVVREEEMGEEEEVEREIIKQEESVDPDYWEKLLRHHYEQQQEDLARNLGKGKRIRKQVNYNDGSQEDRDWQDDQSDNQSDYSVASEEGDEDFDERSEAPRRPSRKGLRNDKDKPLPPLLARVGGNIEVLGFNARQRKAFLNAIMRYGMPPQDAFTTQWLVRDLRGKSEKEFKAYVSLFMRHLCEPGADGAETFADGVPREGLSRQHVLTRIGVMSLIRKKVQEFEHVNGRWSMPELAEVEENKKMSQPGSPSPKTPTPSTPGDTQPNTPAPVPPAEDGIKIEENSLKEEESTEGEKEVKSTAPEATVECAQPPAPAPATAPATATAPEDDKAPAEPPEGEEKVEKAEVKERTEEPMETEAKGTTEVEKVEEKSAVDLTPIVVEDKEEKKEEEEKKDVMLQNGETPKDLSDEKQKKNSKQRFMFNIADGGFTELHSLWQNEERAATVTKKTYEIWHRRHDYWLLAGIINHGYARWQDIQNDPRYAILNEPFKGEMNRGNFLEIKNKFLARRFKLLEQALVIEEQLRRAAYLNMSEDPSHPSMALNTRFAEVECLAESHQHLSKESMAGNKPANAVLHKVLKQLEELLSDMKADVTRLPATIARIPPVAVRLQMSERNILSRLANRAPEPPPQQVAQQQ

CoREST = CoREST (mouse, UniProt Q8CFE3 1-480); experiment: as above
CoREST, sequence (Q8CFE3 whole entry): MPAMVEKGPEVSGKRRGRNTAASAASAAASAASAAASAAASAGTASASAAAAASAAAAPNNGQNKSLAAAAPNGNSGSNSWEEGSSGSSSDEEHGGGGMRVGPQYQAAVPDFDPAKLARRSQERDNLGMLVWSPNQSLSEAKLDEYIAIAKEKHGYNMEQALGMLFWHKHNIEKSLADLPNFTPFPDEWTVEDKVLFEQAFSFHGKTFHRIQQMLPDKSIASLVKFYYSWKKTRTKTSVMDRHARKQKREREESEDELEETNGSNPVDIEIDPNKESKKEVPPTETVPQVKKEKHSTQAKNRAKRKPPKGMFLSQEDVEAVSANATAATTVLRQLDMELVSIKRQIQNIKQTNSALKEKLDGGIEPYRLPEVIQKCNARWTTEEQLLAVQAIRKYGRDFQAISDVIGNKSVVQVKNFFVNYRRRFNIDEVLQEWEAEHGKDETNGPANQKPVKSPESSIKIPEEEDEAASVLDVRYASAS

MTA1 = target: B3; experiment: as above
MTA2 = target: B1; experiment: as above

Row | binding result [1] | binding result (Mi2β) | further results | Binder
1 | – | – | binding result (TR4): binds | TR2 (receptor, mouse, UniProt Q505F1 1-590, looked up, Endogenous protein, immunoprecipitated or detected with a rabbit polyclonal antibody; also called NR2C1) MATIEEIAHQIIDQQMGEIVTEQQTGQKIQIVTALDHSTQGKQFILANHEGSTPGKVFLTTPDAAGVNQLFFTSPDLSAPHLQLLTEKSPDQGPNKVFDLCVVCGDKASGRHYGAITCEGCKGFFKRSIRKNLVYSCRGSKDCVINKHHRNRCQYCRLQRCIAFGMKQDSVQCERKPIEVSREKSSNCAASTEKIYIRKDLRSPLAATPTFVTDSETARSAGLLDSGMFVNIHPSGIKTEPAMLMAPDKAESCQGDLSTLASVVTSLANLGKAKDLSHCGGDMPVVQSLRNGDTSFGAFHHDIQTNGDVSRAFDTLAKALTPGESSACQSPEEGMEGSPHLIAGEPSFVEKEGPLLSESHVAFRLTMPSPMPEYLNVHYIGESASRLLFLSMHWALSIPSFQALGQENSISLVKAYWNELFTLGLAQCWQVMNVATILATFVNCLHSSLQQDKMSPERRKSLMEHIFKLQEFCNSMVKLCIDGHEYAYLKAIVLFSPDHPGLENMELIERFQEKAYVEFQDYITRTYPDDTYRLSRLLLRLPALRLMNATITEELFFKGLIGNVRIDSVIPHILKMEPADYNSQIIGHSL
2 | no binding | – | – | B1
3 | no binding | no binding | binding result (CoREST): no binding; binding result (MTA1): no binding; binding result (MTA2): no binding | HDAC3 (enzyme, mouse, UniProt O88895 1-428, looked up) MAKTVAYFYDPDVGNFHYGAGHPMKPHRLALTHSLVLHYGLYKKMIVFKPYQASQHDMCRFHSEDYIDFLQRVSPTNMQGFTKSLNAFNVGDDCPVFPGLFEFCSRYTGASLQGATQLNNKICDIAINWAGGLHHAKKFEASGFCYVNDIVIGILELLKYHPRVLYIDIDIHHGDGVQEAFYLTDRVMTVSFHKYGNYFFPGTGDMYEVGAESGRYYCLNVPLRDGIDDQSYKHLFQPVISQVVDFYQPTCIVLQCGADSLGCDRLGCFNLSIRGHGECVEYVKSFNIPLLVLGGGGYTVRNVARCWTYETSLLVEEAISEELPYSEYFEYFAPDFTLHPDVSTRIENQNSRQYLDQIRQTIFENLKMLNHAPSVQIHDVPADLLTYDRTDEADAEERGPEENYSRPEAPNEFYDGDHDNDKESDVEI
4 | – | no binding | – | B2
5 | no binding | – | – | B3
